In patent publication US20240207421A1, “NERVE TARGETING PEPTIDES AND METHODS OF USE” (ALUME BIOSCIENCES, INC., priority 2020, published 2024):
Each block holds one substance with its values, some of them ahead of it.

Columns and labels:
[1] = biological target: T1, Human Myelin Basic Protein (Homo sapiens, UniProt P02686); assay: phage display R3, NGS count
Target sequence in this assay (P02686 135-304 limits assumed): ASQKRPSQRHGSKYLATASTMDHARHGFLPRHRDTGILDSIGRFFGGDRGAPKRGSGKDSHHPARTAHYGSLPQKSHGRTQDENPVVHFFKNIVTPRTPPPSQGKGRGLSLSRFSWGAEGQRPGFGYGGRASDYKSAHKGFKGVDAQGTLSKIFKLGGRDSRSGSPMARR

Human MPZ (human) [2] = biological target: Human MPZ (human) (UniProt P25189); assay: phage display, NGS count
Human MPZ (human) [3] = biological target: Human MPZ (human) (UniProt P25189); assay: phage display R3, NGS count
Human Nidogen-2 (human) = Human Nidogen-2 (human) (UniProt Q14112); assay: phage display, NGS count
Chain of Human Nidogen-2 (human) (Q14112 31-1375 limits assumed): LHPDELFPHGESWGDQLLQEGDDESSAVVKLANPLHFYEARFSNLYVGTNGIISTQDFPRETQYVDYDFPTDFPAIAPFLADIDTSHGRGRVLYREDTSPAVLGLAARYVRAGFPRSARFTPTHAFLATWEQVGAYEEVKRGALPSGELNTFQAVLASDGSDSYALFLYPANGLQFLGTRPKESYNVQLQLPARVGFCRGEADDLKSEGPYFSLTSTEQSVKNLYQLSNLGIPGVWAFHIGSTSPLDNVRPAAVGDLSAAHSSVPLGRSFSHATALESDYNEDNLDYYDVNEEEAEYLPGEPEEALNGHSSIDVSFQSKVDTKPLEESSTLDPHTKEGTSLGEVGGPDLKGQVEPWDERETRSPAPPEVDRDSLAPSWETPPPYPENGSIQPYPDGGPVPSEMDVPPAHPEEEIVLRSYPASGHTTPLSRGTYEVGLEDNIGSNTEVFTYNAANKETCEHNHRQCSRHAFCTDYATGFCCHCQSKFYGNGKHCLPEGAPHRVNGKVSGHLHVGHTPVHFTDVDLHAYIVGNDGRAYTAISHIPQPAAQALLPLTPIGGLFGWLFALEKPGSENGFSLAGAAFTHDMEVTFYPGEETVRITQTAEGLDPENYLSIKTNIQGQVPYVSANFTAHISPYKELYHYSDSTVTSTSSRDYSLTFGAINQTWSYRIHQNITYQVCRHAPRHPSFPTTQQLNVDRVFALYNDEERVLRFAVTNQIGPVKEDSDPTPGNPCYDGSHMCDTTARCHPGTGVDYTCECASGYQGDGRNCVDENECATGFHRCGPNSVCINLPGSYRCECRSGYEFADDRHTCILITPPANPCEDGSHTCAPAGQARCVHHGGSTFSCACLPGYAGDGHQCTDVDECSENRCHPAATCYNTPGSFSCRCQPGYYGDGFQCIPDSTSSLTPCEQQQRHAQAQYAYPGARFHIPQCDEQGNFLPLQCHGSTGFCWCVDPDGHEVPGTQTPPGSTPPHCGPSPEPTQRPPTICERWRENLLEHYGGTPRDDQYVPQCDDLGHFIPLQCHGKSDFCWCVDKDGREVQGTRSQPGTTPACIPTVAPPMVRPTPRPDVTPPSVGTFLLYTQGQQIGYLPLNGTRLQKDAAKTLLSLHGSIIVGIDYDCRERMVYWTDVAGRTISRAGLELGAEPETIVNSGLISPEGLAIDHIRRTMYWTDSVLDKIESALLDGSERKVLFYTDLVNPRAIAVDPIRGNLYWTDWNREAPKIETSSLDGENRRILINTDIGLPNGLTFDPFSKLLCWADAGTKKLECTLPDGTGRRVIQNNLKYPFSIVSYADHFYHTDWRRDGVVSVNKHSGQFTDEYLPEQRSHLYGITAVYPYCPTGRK

Human Myelin PLP [4] = assay: Phage display library screening (Example 1, Power BI analysis), binding to Human Myelin PLP; details: R3 Myelin PLP, NextGen sequencing count of phage sequences distinct for this target
Text: (§1) Phage display library screens were used to identify peptides that bind to target proteins that are expressed in human nerves and could therefore be useful for systemic in-vivo labeling of nerves during fluorescence assisted surgery. Specifically, m13 phage libraries expressing 7 or 12 random amino acid peptides, or a cyclic peptide CX7C, on the N-terminus of the minor coat protein pIII (New England Biolabs) were processed through multiple rounds of selection for binding to target proteins expressed in peripheral nerve (Table 1).
(§2) The library was processed through up to 4 binding and wash cycles. For selection, phage libraries were incubated for up to 24 hours at 4° C. in 96 well plates that had been coated with one of the target proteins. Plates were then washed with PBS and phage were eluted using 0.2M glycine pH 2.0. Phage supernatants where then neutralized with Tris pH 9.0 prior to plating on TG1 bacteria and LB agar plates. Colonies were counted to determine titer followed by DNA preparation of pools of phage and NextGen sequencing. After rounds of selection, phage were pooled and amplified for iterative selection. Phage that were bound at each round were sequenced. NextGen sequencing of pools after 2, 3 and 4 rounds of selection was used to isolate candidate sequences that were analyzed further to identify those that specifically bound each unique target protein.
(§3) DNA sequences were trimmed of all vector amino acids and imported as a peptide dataset into Power BI. Power BI was used to identify phage display sequences for specific columns (corresponding to each target protein) in order to identify sequences that were distinct for each protein target. The Power BI code evaluated each individual sequence for each protein target against the sequences present in other protein targets in a test for uniqueness. Using the distinct flag, the Power BI code generated a filtered peptide dataset that excluded any peptide sequence that occur in more than one column which identified a specific protein target. This method therefore identified candidate peptide sequences showing selective binding to an individual target protein. Unique sequences in each column were sorted by individual counts such that the most selected sequences appeared at the top of the column.

Human Myelin PLP [5] = assay: Phage display library screening (Example 2, Python script analysis), binding to Human Myelin PLP; details: combined unique sequence count, Python/R script analysis
Experimental: Phage display library screens were used to identify peptides that bind to target proteins (including specific laminin trimers) that are expressed in human nerves, as described in Table 3. These screens were also carried out to identify peptides that could bind selectively to nerves versus muscle. Such peptides could therefore be useful for systemic in-vivo labeling of nerves during fluorescence assisted surgery. Specifically, m 13 phage libraries expressing 7 or 12 random amino acid peptides, or a cyclic peptide CX7C, on the N-terminus of the minor coat protein pIII (New England Biolabs; NEB) were processed through multiple rounds of selection for binding to target proteins expressed in nerves, or to excised human nerves, nerve extracts, or muscle, as described further below.
as §2, with “For screening against the specified target proteins in Table 1, including LN211, LN411, LN421, and LN521, the phage” for “The”, “by” for “through”, “TGI” for “TG1”
Python Script Analysis: For all NEB sequence datasets, a python script was used to translate, trim, and filter the peptide sequences. The script translated the nucleotide sequences, translating amber codons as glutamine in peptide sequences, and then trimmed the end sequences that come from the vector. Secondly, the script combined the unique counts of trimmed peptides with identical sequences. […] Another python script was used to group peptides from different assays according to protein target (Myelin Protein Zero, Myelin Proteolipid Protein, Myelin Basic Protein, and Nidogen-2) and also combine the unique sequence counts for each peptide. An R script was written to merge the peptide sequences from different data files and determine peptides specific for each protein target but absent from different protein binding datasets. Peptide sequences were ranked by unique sequence count.

[6] = biological target: T1, Human Myelin Basic Protein; assay: Phage display library screening (Example 1, Power BI analysis), binding to Human Myelin Basic Protein; parameters: Enzo 200-606-M001 from human; purchased Enzo 200-606-M001; host or cells: human brain (tissue-derived); details: R3 Myelin Basic Protein, NextGen sequencing count of phage sequences distinct for this target
Text: as §1, §2, §3
Target sequence in this assay (P02686 134-304): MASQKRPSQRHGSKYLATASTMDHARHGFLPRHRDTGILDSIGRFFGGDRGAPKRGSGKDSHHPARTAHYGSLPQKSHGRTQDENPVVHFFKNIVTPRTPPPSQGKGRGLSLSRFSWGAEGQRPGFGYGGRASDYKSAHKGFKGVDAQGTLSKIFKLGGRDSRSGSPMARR

[7] = biological target: T1, Human Myelin Basic Protein; assay: Phage display library screening (Example 2, Python script analysis), binding to Human Myelin Basic Protein; parameters: Enzo 200-606-M001 from human; purchased Enzo 200-606-M001; host or cells: human brain (tissue-derived); details: R3 Myelin Basic Protein; combined unique sequence count, Python/R script analysis
Procedure, shortened: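 Target protein-coated wells were panned with M13 phage libraries displaying 7- or 12-mer random or cyclic CX7C peptides on pIII, over up to 4 rounds (up to 24 h, 4° C), with glycine pH 2.0 elution. Pools from rounds 2–4 were NextGen-sequenced. Peptides specific to each target were ranked by unique sequence count.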
Target sequence in this assay (P02686 134-304): as above

[8] = biological target: T1, Human Myelin Basic Protein; assay: phage display, NGS count
Target sequence in this assay (P02686 135-304 limits assumed): as the sequence (P02686 135-304 limits assumed) above

Chain of Human MPZ (human) (P25189 30-153 limits assumed): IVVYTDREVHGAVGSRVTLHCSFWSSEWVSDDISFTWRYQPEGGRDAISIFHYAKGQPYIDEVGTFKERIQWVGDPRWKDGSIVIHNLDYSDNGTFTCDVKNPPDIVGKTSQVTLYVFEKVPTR

- Count [1]: 10
Substance: AGFPPNT (peptide)

- Count (Human MPZ (human) [2]): 197
- Count (Human MPZ (human) [3]): 196
Substance: ALPLSAS (peptide)

- Count (Human Nidogen-2 (human)): 7
Substance: ALYLPGR (peptide)

- Count (Human Nidogen-2 (human)): 7
Substance: ARMAFSL (peptide)

Substance: ATLKPYR (R3 Myelin PLP-binding peptide)
- Count (Human Myelin PLP [4]): 68
- Count (Human Myelin PLP [5]): 68

- Count (Human Nidogen-2 (human)): 7
Substance: ATYNMSQ (peptide)

Substance: AWSTSSV (R3 Myelin Basic Protein-binding peptide)
- Count [6]: 12
- Count [7]: 12

- Count [8]: 12
- Count [1]: 12
Substance: AWSTSSV (peptide)

- Count [1]: 10
Substance: DGKNTSN (peptide)

- Count (Human MPZ (human) [2]): 93
- Count (Human MPZ (human) [3]): 92
Substance: DPITRLK (peptide)

Substance: DPWVMLR (R3 Myelin Basic Protein-binding peptide)
- Count [6]: 11
- Count [7]: 11

- Count [8]: 11
- Count [1]: 11
Substance: DPWVMLR (peptide)

- Count (Human MPZ (human) [2]): 50
- Count (Human MPZ (human) [3]): 50
Substance: DRNSVFW (peptide)

Substance: DTSRTME (R3 Myelin PLP-binding peptide)
- Count (Human Myelin PLP [4]): 33
- Count (Human Myelin PLP [5]): 33

- Count (Human Nidogen-2 (human)): 6
Substance: EAMMHRN (peptide)

Substance: EHGYYKV (R3 Myelin Basic Protein-binding peptide)
- Count [6]: 16
- Count [7]: 17

Substance: EKPSWTR (R3 Myelin PLP-binding peptide)
- Count (Human Myelin PLP [4]): 33
- Count (Human Myelin PLP [5]): 33

- Count (Human MPZ (human) [2]): 69
- Count (Human MPZ (human) [3]): 68
Substance: ETTRNYG (peptide)

Substance: FKMPIPT (R3 Myelin PLP-binding peptide)
- Count (Human Myelin PLP [4]): 34
- Count (Human Myelin PLP [5]): 34

Substance: FPVVTRN (R3 Myelin PLP-binding peptide)
- Count (Human Myelin PLP [4]): 42

Substance: GLIRHYT (R3 Myelin PLP-binding peptide)
- Count (Human Myelin PLP [4]): 66
- Count (Human Myelin PLP [5]): 66

- Count (Human Nidogen-2 (human)): 7
Substance: GLRTMEP (peptide)

- Count (Human MPZ (human) [3]): 48
Substance: GLTPKLF (peptide)

Substance: GPFLFTV (R3 Myelin PLP-binding peptide)
- Count (Human Myelin PLP [4]): 47

- Count (Human MPZ (human) [2]): 51
- Count (Human MPZ (human) [3]): 50
Substance: GPLRMAT (peptide)

- Count [1]: 18
Substance: HPSTWHK (peptide)

Substance: HQGSRTY (R3 Myelin PLP-binding peptide)
- Count (Human Myelin PLP [4]): 53
- Count (Human Myelin PLP [5]): 53

Substance: HRLPWHH (R3 Myelin Basic Protein-binding peptide)
- Count [6]: 10
- Count [7]: 10

- Count [8]: 10
- Count [1]: 10
Substance: HRLPWHH (peptide)

- Count (Human Nidogen-2 (human)): 13
Substance: HSRLPTP (peptide)

- Count (Human MPZ (human) [2]): 82
- Count (Human MPZ (human) [3]): 78
Substance: IKPPYTH (peptide)

- Count (Human MPZ (human) [2]): 54
- Count (Human MPZ (human) [3]): 51
Substance: KMAGHTV (peptide)

Substance: LALYARM (R3 Myelin PLP-binding peptide)
- Count (Human Myelin PLP [4]): 44
- Count (Human Myelin PLP [5]): 44

- Count (Human Nidogen-2 (human)): 6
Substance: LHITPEV (peptide)

Substance: LPMRILT (R3 Myelin Basic Protein-binding peptide)
- Count [6]: 16
- Count [7]: 16

Substance: LRFQIPP (R3 Myelin PLP-binding peptide)
- Count (Human Myelin PLP [4]): 44
- Count (Human Myelin PLP [5]): 44

- Count [1]: 12
Substance: LRPISHE (peptide)

- Count (Human Nidogen-2 (human)): 6
Substance: LSIRGLT (peptide)

- Count (Human MPZ (human) [2]): 56
- Count (Human MPZ (human) [3]): 56
Substance: LSSPLSL (peptide)

Substance: LTHHFAP (R3 Myelin PLP-binding peptide)
- Count (Human Myelin PLP [4]): 40
- Count (Human Myelin PLP [5]): 40

- Count (Human Nidogen-2 (human)): 8
Substance: LVHPFHG (peptide)

- Count [1]: 12
Substance: MQTQGRV (peptide)

Substance: MTPHTSC (R3 Myelin PLP-binding peptide)
- Count (Human Myelin PLP [4]): 62

- Count [1]: 19
Substance: NDTKTPS (peptide)

- Count (Human Nidogen-2 (human)): 6
Substance: NILSQVN (peptide)

Substance: NPNWRTI (R3 Myelin PLP-binding peptide)
- Count (Human Myelin PLP [4]): 34
- Count (Human Myelin PLP [5]): 34

Substance: NPSHHPR (R3 Myelin PLP-binding peptide)
- Count (Human Myelin PLP [4]): 37
- Count (Human Myelin PLP [5]): 37

- Count [1]: 11
Substance: QIGVLPS (peptide)

- Count (Human Nidogen-2 (human)): 6
Substance: QLLESRT (peptide)

- Count (Human Nidogen-2 (human)): 6
Substance: QMDAKHM (peptide)

Substance: QNTGLKW (R3 Myelin Basic Protein-binding peptide)
- Count [6]: 11
- Count [7]: 11

- Count [8]: 11
- Count [1]: 11
Substance: QNTGLKW (peptide)

- Count (Human Nidogen-2 (human)): 6
Substance: QTLRPKQ (peptide)

Substance: RFELPAP (R3 Myelin PLP-binding peptide)
- Count (Human Myelin PLP [4]): 52
- Count (Human Myelin PLP [5]): 52

Substance: RHNVEFS (R3 Myelin PLP-binding peptide)
- Count (Human Myelin PLP [4]): 42
- Count (Human Myelin PLP [5]): 42

- Count (Human MPZ (human) [3]): 49
Substance: RVPHSRT (peptide)

- Count (Human MPZ (human) [2]): 52
- Count (Human MPZ (human) [3]): 51
Substance: SAHAKHH (peptide)

- Count (Human MPZ (human) [3]): 97
Substance: SHLASRP (peptide)

- Count (Human MPZ (human) [2]): 79
- Count (Human MPZ (human) [3]): 67
Substance: SHSPGNK (peptide)

Substance: SMWSQFR (R3 Myelin PLP-binding peptide)
- Count (Human Myelin PLP [4]): 34
- Count (Human Myelin PLP [5]): 34

Substance: SPDRTSL (R3 Myelin Basic Protein-binding peptide)
- Count [6]: 12
- Count [7]: 12

- Count [8]: 12
- Count [1]: 12
Substance: SPDRTSL (peptide)

- Count (Human MPZ (human) [2]): 52
- Count (Human MPZ (human) [3]): 50
Substance: TESLFPH (peptide)

- Count (Human Nidogen-2 (human)): 6
Substance: TIASLLV (peptide)

- Count (Human MPZ (human) [2]): 58
- Count (Human MPZ (human) [3]): 52
Substance: TMASPAK (peptide)

Substance: TNPWKPH (R3 Myelin PLP-binding peptide)
- Count (Human Myelin PLP [4]): 62
- Count (Human Myelin PLP [5]): 62

- Count (Human Nidogen-2 (human)): 7
Substance: TPWLPTI (peptide)

- Count (Human MPZ (human) [2]): 108
- Count (Human MPZ (human) [3]): 107
Substance: TSPWELR (peptide)

- Count (Human MPZ (human) [2]): 87
- Count (Human MPZ (human) [3]): 86
Substance: VLKNNPT (peptide)

- Count (Human MPZ (human) [2]): 56
- Count (Human MPZ (human) [3]): 56
Substance: VLTKPMP (peptide)

- Count (Human Nidogen-2 (human)): 6
Substance: WLAAGSQ (peptide)

- Count (Human MPZ (human) [2]): 58
- Count (Human MPZ (human) [3]): 57
Substance: WPSISRP (peptide)

Substance: WTMKPNY (R3 Myelin Basic Protein-binding peptide)
- Count [6]: 13
- Count [7]: 14

- Count [8]: 14
- Count [1]: 13
Substance: WTMKPNY (peptide)

- Count (Human Nidogen-2 (human)): 7
Substance: YNHTMMY (peptide)

Substance: YPKLWTY (R3 Myelin PLP-binding peptide)
- Count (Human Myelin PLP [4]): 35
- Count (Human Myelin PLP [5]): 35

Substance: YTPMGTG (R3 Myelin PLP-binding peptide)
- Count (Human Myelin PLP [4]): 50
- Count (Human Myelin PLP [5]): 50
